The values that follow come from ChEMBL document CHEMBL2074311, “ATP-dependent para-aminohippurate transport by apical multidrug resistance protein MRP2” (Kidney Int, 2000).

Substrate in data set [1]: Nc1ccc(C(=O)NCC(=O)O)cc1
Put plainly: TP_TRANSPORTER: uptake in membrane vesicles from MRP2-expressing HEK cells. In kind it is functional, cell membranes, HEK293, Membrane vesicle.

Substrate in data set [2]: Nc1ccc(C(=O)NCC(=O)O)cc1
Put plainly: TP_TRANSPORTER: uptake in membrane vesicle from MRP1-expressing HeLa cells. In kind it is functional, cell membranes.

B1: ATP-binding cassette sub-family C member 2 (Homo sapiens) (protein)
chain: MLEKFCNSTFWNSSFLDSPEADLPLCFEQTVLVWIPLGYLWLLAPWQLLHVYKSRTKRSSTTKLYLAKQVFVGFLLILAAIELALVLTEDSGQATVPAVRYTNPSLYLGTWLLVLLIQYSRQWCVQKNSWFLSLFWILSILCGTFQFQTLIRTLLQGDNSNLAYSCLFFISYGFQILILIFSAFSENNESSNNPSSIASFLSSITYSWYDSIILKGYKRPLTLEDVWEVDEEMKTKTLVSKFETHMKRELQKARRALQRRQEKSSQQNSGARLPGLNKNQSQSQDALVLEDVEKKKKKSGTKKDVPKSWLMKALFKTFYMVLLKSFLLKLVNDIFTFVSPQLLKLLISFASDRDTYLWIGYLCAILLFTAALIQSFCLQCYFQLCFKLGVKVRTAIMASVYKKALTLSNLARKEYTVGETVNLMSVDAQKLMDVTNFMHMLWSSVLQIVLSIFFLWRELGPSVLAGVGVMVLVIPINAILSTKSKTIQVKNMKNKDKRLKIMNEILSGIKILKYFAWEPSFRDQVQNLRKKELKNLLAFSQLQCVVIFVFQLTPVLVSVVTFSVYVLVDSNNILDAQKAFTSITLFNILRFPLSMLPMMISSMLQASVSTERLEKYLGGDDLDTSAIRHDCNFDKAMQFSEASFTWEHDSEATVRDVNLDIMAGQLVAVIGPVGSGKSSLISAMLGEMENVHGHITIKGTTAYVPQQSWIQNGTIKDNILFGTEFNEKRYQQVLEACALLPDLEMLPGGDLAEIGEKGINLSGGQKQRISLARATYQNLDIYLLDDPLSAVDAHVGKHIFNKVLGPNGLLKGKTRLLVTHSMHFLPQVDEIVVLGNGTIVEKGSYSALLAKKGEFAKNLKTFLRHTGPEEEATVHDGSEEEDDDYGLISSVEEIPEDAASITMRRENSFRRTLSRSSRSNGRHLKSLRNSLKTRNVNSLKEDEELVKGQKLIKKEFIETGKVKFSIYLEYLQAIGLFSIFFIILAFVMNSVAFIGSNLWLSAWTSDSKIFNSTDYPASQRDMRVGVYGALGLAQGIFVFIAHFWSAFGFVHASNILHKQLLNNILRAPMRFFDTTPTGRIVNRFAGDISTVDDTLPQSLRSWITCFLGIISTLVMICMATPVFTIIVIPLGIIYVSVQMFYVSTSRQLRRLDSVTRSPIYSHFSETVSGLPVIRAFEHQQRFLKHNEVRIDTNQKCVFSWITSNRWLAIRLELVGNLTVFFSALMMVIYRDTLSGDTVGFVLSNALNITQTLNWLVRMTSEIETNIVAVERITEYTKVENEAPWVTDKRPPPDWPSKGKIQFNNYQVRYRPELDLVLRGITCDIGSMEKIGVVGRTGAGKSSLTNCLFRILEAAGGQIIIDGVDIASIGLHDLREKLTIIPQDPILFSGSLRMNLDPFNNYSDEEIWKALELAHLKSFVASLQLGLSHEVTEAGGNLSIGQRQLLCLGRALLRKSKILVLDEATAAVDLETDNLIQTTIQNEFAHCTVITIAHRLHTIMDSDKVMVLDNGKIIECGSPEELLQIPGPFYFMAKEAGIENVNSTKF
On to B1, for which the Km (in general, the substrate concentration at which the rate is half of its maximum) in data set [1] amounted to 880 µM.

B2: Multidrug resistance-associated protein 1 (Homo sapiens) (protein)
chain: MALRGFCSADGSDPLWDWNVTWNTSNPDFTKCFQNTVLVWVPCFYLWACFPFYFLYLSRHDRGYIQMTPLNKTKTALGFLLWIVCWADLFYSFWERSRGIFLAPVFLVSPTLLGITMLLATFLIQLERRKGVQSSGIMLTFWLVALVCALAILRSKIMTALKEDAQVDLFRDITFYVYFSLLLIQLVLSCFSDRSPLFSETIHDPNPCPESSASFLSRITFWWITGLIVRGYRQPLEGSDLWSLNKEDTSEQVVPVLVKNWKKECAKTRKQPVKVVYSSKDPAQPKESSKVDANEEVEALIVKSPQKEWNPSLFKVLYKTFGPYFLMSFFFKAIHDLMMFSGPQILKLLIKFVNDTKAPDWQGYFYTVLLFVTACLQTLVLHQYFHICFVSGMRIKTAVIGAVYRKALVITNSARKSSTVGEIVNLMSVDAQRFMDLATYINMIWSAPLQVILALYLLWLNLGPSVLAGVAVMVLMVPVNAVMAMKTKTYQVAHMKSKDNRIKLMNEILNGIKVLKLYAWELAFKDKVLAIRQEELKVLKKSAYLSAVGTFTWVCTPFLVALCTFAVYVTIDENNILDAQTAFVSLALFNILRFPLNILPMVISSIVQASVSLKRLRIFLSHEELEPDSIERRPVKDGGGTNSITVRNATFTWARSDPPTLNGITFSIPEGALVAVVGQVGCGKSSLLSALLAEMDKVEGHVAIKGSVAYVPQQAWIQNDSLRENILFGCQLEEPYYRSVIQACALLPDLEILPSGDRTEIGEKGVNLSGGQKQRVSLARAVYSNADIYLFDDPLSAVDAHVGKHIFENVIGPKGMLKNKTRILVTHSMSYLPQVDVIIVMSGGKISEMGSYQELLARDGAFAEFLRTYASTEQEQDAEENGVTGVSGPGKEAKQMENGMLVTDSAGKQLQRQLSSSSSYSGDISRHHNSTAELQKAEAKKEETWKLMEADKAQTGQVKLSVYWDYMKAIGLFISFLSIFLFMCNHVSALASNYWLSLWTDDPIVNGTQEHTKVRLSVYGALGISQGIAVFGYSMAVSIGGILASRCLHVDLLHSILRSPMSFFERTPSGNLVNRFSKELDTVDSMIPEVIKMFMGSLFNVIGACIVILLATPIAAIIIPPLGLIYFFVQRFYVASSRQLKRLESVSRSPVYSHFNETLLGVSVIRAFEEQERFIHQSDLKVDENQKAYYPSIVANRWLAVRLECVGNCIVLFAALFAVISRHSLSAGLVGLSVSYSLQVTTYLNWLVRMSSEMETNIVAVERLKEYSETEKEAPWQIQETAPPSSWPQVGRVEFRNYCLRYREDLDFVLRHINVTINGGEKVGIVGRTGAGKSSLTLGLFRINESAEGEIIIDGINIAKIGLHDLRFKITIIPQDPVLFSGSLRMNLDPFSQYSDEEVWTSLELAHLKDFVSALPDKLDHECAEGGENLSVGQRQLVCLARALLRKTKILVLDEATAAVDLETDDLIQSTIRTQFEDCTVLTIAHRLNTIMDYTRVIVLDKGEIQEYGAPSDLLQQRGLFYSMAKDAGLV
Regarding B2, the Michaelis-Menten constant (Km) in data set [2] worked out at 372 µM.
